Data reported in publication PMC11511902.
Read-outs that look alike come from different tables or passages of the source.

Experiments:
Assay in all cases: SPR
[1] = target: T1, His6-gp1 (Bacillus thuringiensis phage GIL01 …, UniProt Q7WSG8 1-58)
T1 sequence: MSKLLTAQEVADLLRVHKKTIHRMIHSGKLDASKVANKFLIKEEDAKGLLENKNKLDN

[2] = target: T1, His6-gp1; remark: listed apart in the source
[3] = target: T1, His6-gp1; remark: listed apart in the source

B1: SPR_172Δ355 (cp33.1) 81-bp fragment (dsDNA)
DNA 1: GTTACTACTCGAGCGAAAAGGAAAAGTGTGACAAGATATTCCAAGGGTGCTATAATAGGAAATGAGTAAACTACTGACTGCGCAAGAGGTTGCAGA
DNA 2: TCTGCAACCTCTTGCGCAGTCAGTAGTTTACTCATTTCCTATTATAGCACCCTTGGAATATCTTGTCACACTTTTCCTTTT
DNA 3: CGCTCGAGTAGTAAC
Question: Does B1 bind [1]?
Answer: Result: no binding

B2: SPR_252Δ262 (cp33.14) 81-bp fragment (dsDNA)
DNA 1: GTTACTACTCGAGCGTGTAATATAAAAACATTTGCATTACTGGTAATATTGGTAGCAGAGAGGGACAAACGGGACAAATCGAGACACGATACATAC
DNA 2: GTATGTATCGTGTCTCGATTTGTCCCGTTTGTCCCTCTCTGCTACCAATATTACCAGTAATGCAAATGTTTTTATATTACA
DNA 3: CGCTCGAGTAGTAAC
Question: Does B2 bind [2]?
Answer: Result: binds

B3: SPR_wt 81-bp P2 fragment (dsDNA)
DNA 1: GTTACTACTCGAGCGAACATTTGCATTACTGGTAACTTTCGGGTAATATTGGTAGCAGAGAGGGACAAACGGGACAAATCGAGACACGATACATAC
DNA 2: GTATGTATCGTGTCTCGATTTGTCCCGTTTGTCCCTCTCTGCTACCAATATTACCCGAAAGTTACCAGTAATGCAAATGTT
DNA 3: CGCTCGAGTAGTAAC
Question: Does B3 bind [3]?
Answer: Result: binds
